Consider twelve variants from the FLAb antibody collection (doi:10.7554/elife.23156).

B1: scFv; the commonest letter at each place (parent)
chain 1: EVKLDETGGGLVQPGRPMKLSCVASGFTFSDYWMNWVRQSPEKGLEWVAQIRNKPYNYETYYSDSVKGRFTISRDDSKSSVYLQMNNLRVEDMGIYYCTGSYYGMDYWGQGTSVTVS
chain 2: DVVMTQTPLSLPVSLGDQASISCRSSQSLVHSNGNTYLRWYLQKPGQSPKVLIYKVSNRFSGVPDRFSGSGSGTDFTLKISRVEAEDLGVYFCSQSTHVPWTFGGGTKLEIK

The data set “fluorescein” covers variants of B1. Description: Kd (Tite-Seq). To be noted: with fluorescein; format: scFv 4-4-20, heavy + light.
The variants in data set [1] derive from B1. Description: yeast surface expression (ratio to wild type); higher = more expressed. The conditions noted are these: format: scFv 4-4-20, heavy + light.

On to chain 1 EVKLDETGGGLVQPGRPMKLSCVASGFTFSAYWMNHVRQSPEKGLEWVAQIRNKPYNYETYYSDSVKGRFTISRDDSKSSVYLQMNNLRVEDMGIYYCTGSYYGMDYWGQGTSVTVS chain 2 DVVMTQTPLSLPVSLGDQASISCRSSQSLVHSNGNTYLRWYLQKPGQSPKVLIYKVSNRFSGVPDRFSGSGSGTDFTLKISRVEAEDLGVYFCSQSTHVPWTFGGGTKLEIK [chain 1 D31A W36H], for which, in the data set with fluorescein, the dissociation constant Kd – broadly, the free concentration of one partner at which half of the binding sites on the other are occupied at equilibrium, for simple one-to-one binding – is at least 10000 nM. Besides, the yeast surface expression in data set [1] worked out at 0.137.
In the same order, the values of chain 1 EVKLDETGGGLVQPGRPMKLSCVASGFTFSAYWMNMVRQSPEKGLEWVAQIRNKPYNYETYYSDSVKGRFTISRDDSKSSVYLQMNNLRVEDMGIYYCTGSYYGMDYWGQGTSVTVS chain 2 DVVMTQTPLSLPVSLGDQASISCRSSQSLVHSNGNTYLRWYLQKPGQSPKVLIYKVSNRFSGVPDRFSGSGSGTDFTLKISRVEAEDLGVYFCSQSTHVPWTFGGGTKLEIK [chain 1 D31A W36M] are at least 10000 nM and 0.551.
For chain 1 EVKLDETGGGLVQPGRPMKLSCVASGFTFSAYWMTWSRQSPEKGLEWVAQIRNKPYNYETYYSDSVKGRFTISRDDSKSSVYLQMNNLRVEDMGIYYCTGSYYGMDYWGQGTSVTVS chain 2 DVVMTQTPLSLPVSLGDQASISCRSSQSLVHSNGNTYLRWYLQKPGQSPKVLIYKVSNRFSGVPDRFSGSGSGTDFTLKISRVEAEDLGVYFCSQSTHVPWTFGGGTKLEIK [chain 1 D31A N35T V37S], in that order: at least 10000 nM and 0.281.
Regarding chain 1 EVKLDETGGGLVQPGRPMKLSCVASGFTFSCYWMNWVRQSPEKGLEWVAQIRNKPYNYETYYSDSVKGRFTISRDDSKSSVYLQMNNLRVEDMGIYYCTGSYYGMDYWGQGTSVTVS chain 2 DVVMTQTPLSLPVSLGDQASISCRSSQSLVHSNGNTYLRWYLQKPGQSPKVLIYKVSNRFSGVPDRFSGSGSGTDFTLKISRVEAEDLGVYFCSQSTHVPWTFGGGTKLEIK [chain 1 D31C], the equilibrium dissociation constant (Kd) in the data set with fluorescein was found to be 74.7 nM. The yeast surface expression in data set [1] turned out to be 0.608.
chain 1 EVKLDETGGGLVQPGRPMKLSCVASGFTFSAYWMNWVRQSPEKGLEWVAQIRNKPYNYETYYSDSVKGRFTISRDDSKSSVYLQMNNLRVEDMGIYYCTGSYYGMDYWGQGTSVTVS chain 2 DVVMTQTPLSLPVSLGDQASISCRSSQSLVHSNGNTYLRWYLQKPGQSPKVLIYKVSNRFSGVPDRFSGSGSGTDFTLKISRVEAEDLGVYFCSQSTHVPWTFGGGTKLEIK [chain 1 D31A]: the Kd with fluorescein is 3.43 nM. Besides, in data set [1], the yeast surface expression stood at 0.772.
As to chain 1 EVKLDETGGGLVQPGRPMKLSCVASGFTFSCYWENWVRQSPEKGLEWVAQIRNKPYNYETYYSDSVKGRFTISRDDSKSSVYLQMNNLRVEDMGIYYCTGSYYGMDYWGQGTSVTVS chain 2 DVVMTQTPLSLPVSLGDQASISCRSSQSLVHSNGNTYLRWYLQKPGQSPKVLIYKVSNRFSGVPDRFSGSGSGTDFTLKISRVEAEDLGVYFCSQSTHVPWTFGGGTKLEIK [chain 1 D31C M34E], in the data set with fluorescein, the dissociation constant Kd amounted to 579 nM. For the same variant, the yeast surface expression in data set [1] was determined as 0.778.
In the same order, the values of chain 1 EVKLDETGGGLVQPGRPMKLSCVASGFTFSAYWMNWKRQSPEKGLEWVAQIRNKPYNYETYYSDSVKGRFTISRDDSKSSVYLQMNNLRVEDMGIYYCTGSYYGMDYWGQGTSVTVS chain 2 DVVMTQTPLSLPVSLGDQASISCRSSQSLVHSNGNTYLRWYLQKPGQSPKVLIYKVSNRFSGVPDRFSGSGSGTDFTLKISRVEAEDLGVYFCSQSTHVPWTFGGGTKLEIK [chain 1 D31A V37K] are 382 nM and 0.623.
For chain 1 EVKLDETGGGLVQPGRPMKLSCVASGFTFSAYWMNWERQSPEKGLEWVAQIRNKPYNYETYYSDSVKGRFTISRDDSKSSVYLQMNNLRVEDMGIYYCTGSYYGMDYWGQGTSVTVS chain 2 DVVMTQTPLSLPVSLGDQASISCRSSQSLVHSNGNTYLRWYLQKPGQSPKVLIYKVSNRFSGVPDRFSGSGSGTDFTLKISRVEAEDLGVYFCSQSTHVPWTFGGGTKLEIK [chain 1 D31A V37E], in that order: at least 10000 nM and 2.19.
For chain 1 EVKLDETGGGLVQPGRPMKLSCVASGFTFSAKWCNWVRQSPEKGLEWVAQIRNKPYNYETYYSDSVKGRFTISRDDSKSSVYLQMNNLRVEDMGIYYCTGSYYGMDYWGQGTSVTVS chain 2 DVVMTQTPLSLPVSLGDQASISCRSSQSLVHSNGNTYLRWYLQKPGQSPKVLIYKVSNRFSGVPDRFSGSGSGTDFTLKISRVEAEDLGVYFCSQSTHVPWTFGGGTKLEIK [chain 1 D31A Y32K M34C], in that order: at least 10000 nM and 1.1.
In the case of chain 1 EVKLDETGGGLVQPGRPMKLSCVASGFTFSAYWLNWGRQSPEKGLEWVAQIRNKPYNYETYYSDSVKGRFTISRDDSKSSVYLQMNNLRVEDMGIYYCTGSYYGMDYWGQGTSVTVS chain 2 DVVMTQTPLSLPVSLGDQASISCRSSQSLVHSNGNTYLRWYLQKPGQSPKVLIYKVSNRFSGVPDRFSGSGSGTDFTLKISRVEAEDLGVYFCSQSTHVPWTFGGGTKLEIK [chain 1 D31A M34L V37G], the Kd with fluorescein came out at 21 nM. Also, the yeast surface expression in data set [1] was 0.0111.
In the same order, the values of chain 1 EVKLDETGGGLVQPGRPMKLSCVASGFTFSAYIMNWVRQSPEKGLEWVAQIRNKPYNYETYYSDSVKGRFTISRDDSKSSVYLQMNNLRVEDMGIYYCTGSYYGMDYWGQGTSVTVS chain 2 DVVMTQTPLSLPVSLGDQASISCRSSQSLVHSNGNTYLRWYLQKPGQSPKVLIYKVSNRFSGVPDRFSGSGSGTDFTLKISRVEAEDLGVYFCSQSTHVPWTFGGGTKLEIK [chain 1 D31A W33I] are at least 10000 nM and 0.872.
In the same order, the values of chain 1 EVKLDETGGGLVQPGRPMKLSCVASGFTFSAYLMNWVRQSPEKGLEWVAQIRNKPYNYETYYSDSVKGRFTISRDDSKSSVYLQMNNLRVEDMGIYYCTGSYYGMDYWGQGTSVTVS chain 2 DVVMTQTPLSLPVSLGDQASISCRSSQSLVHSNGNTYLRWYLQKPGQSPKVLIYKVSNRFSGVPDRFSGSGSGTDFTLKISRVEAEDLGVYFCSQSTHVPWTFGGGTKLEIK [chain 1 D31A W33L] are at least 10000 nM and 0.534.
